Measurements as given in paper PMC2174553.

Biological target: Bub1p fusion to the Gal4 DNA binding domain (budding yeast) (UniProt P41695)
Experiment: two-hybrid

Chain of UniProt P41695 (P41695 whole entry, the tested form may be a part): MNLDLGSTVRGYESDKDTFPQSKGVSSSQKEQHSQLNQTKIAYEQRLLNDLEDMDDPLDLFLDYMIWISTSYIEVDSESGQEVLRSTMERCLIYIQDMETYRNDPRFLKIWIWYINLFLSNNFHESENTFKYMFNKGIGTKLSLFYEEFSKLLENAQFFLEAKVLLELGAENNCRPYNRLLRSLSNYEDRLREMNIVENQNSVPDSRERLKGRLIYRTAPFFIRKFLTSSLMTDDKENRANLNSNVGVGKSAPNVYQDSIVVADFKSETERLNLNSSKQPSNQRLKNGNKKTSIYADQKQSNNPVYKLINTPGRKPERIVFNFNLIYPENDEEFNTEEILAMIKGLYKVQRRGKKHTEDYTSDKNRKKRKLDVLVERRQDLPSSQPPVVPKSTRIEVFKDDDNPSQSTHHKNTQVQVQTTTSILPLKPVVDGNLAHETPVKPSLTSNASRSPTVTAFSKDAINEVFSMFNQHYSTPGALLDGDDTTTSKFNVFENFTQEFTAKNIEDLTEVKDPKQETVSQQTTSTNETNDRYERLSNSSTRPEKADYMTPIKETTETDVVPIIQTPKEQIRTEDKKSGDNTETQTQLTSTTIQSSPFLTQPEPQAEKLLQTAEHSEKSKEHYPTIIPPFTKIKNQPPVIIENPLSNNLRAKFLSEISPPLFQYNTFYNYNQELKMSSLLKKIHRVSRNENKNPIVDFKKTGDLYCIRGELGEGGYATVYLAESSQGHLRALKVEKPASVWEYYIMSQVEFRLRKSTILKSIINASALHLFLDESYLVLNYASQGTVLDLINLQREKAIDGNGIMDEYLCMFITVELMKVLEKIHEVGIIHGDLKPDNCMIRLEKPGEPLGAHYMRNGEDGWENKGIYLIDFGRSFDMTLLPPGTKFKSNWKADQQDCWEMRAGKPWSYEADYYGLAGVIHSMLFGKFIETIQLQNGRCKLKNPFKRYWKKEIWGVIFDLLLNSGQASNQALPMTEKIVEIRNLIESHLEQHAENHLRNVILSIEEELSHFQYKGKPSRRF

| Binder | β-galactosidase activity (two-hybrid) |
| --- | --- |
| Cdc20p fusion to the transcriptional activation domain (natural protein) MPESSRDKGNAAISGNRSVLSIASPTKLNILSSDWSRNQGKVSKNSLKRSSSLNIRNSKRPSLQASANSIYSRPKITIGAPPLIRRDSSFFKDEFDAKKDKATFSAYSSRSYPTIGSESVVSQTSLSQPTTSREVDEQFTVAADRYIPILQGASQNKVDPETLHEALPPPNASPISHLRAQTKIVFKQNVAEACGLDMNKRILQYMPEPPKCSSLRQKSYIMKKRTHYSYQQEQKIPDLIKLRKINTNPERILDAPGFQDDFYLNLLSWSKKNVLAIALDTALYLWNATTGDVSLLTDFENTTICSVTWSDDDCHISIGKEDGNTEIWDVETMSLIRTMRSGLGVRIGSLSWLDTLIATGSRSGEIQINDVRIKQHIVSTWAEHTGEVCGLSYKSDGLQLASGGNDNTVMIWDTRTSLPQFSKKTHTAAVKALSWCPYSPNILASGGGQTDKHIHFWNSITGARVGSINTGSQVSSLHWGQSHTSTNGGMMNKEIVATGGNPENAISVYNYETKFKVAEVVHAHEARICCSQLSPDGTTLATVGGDENLKFYKIFDPRCTGRSREDGLMDGMLGLIGKEGCRTNDKENRSKNSSEIHTRRPSSTSQYLIR | 100 Miller units |
| Bub3p fusion to the transcriptional activation domain (natural protein) MQIVQIEQAPKDYISDIKIIPSKSLLLITSWDGSLTVYKFDIQAKNVDLLQSLRYKHPLLCCNFIDNTDLQIYVGTVQGEILKVDLIGSPSFQALTNNEANLGICRICKYGDDKLIAASWDGLIEVIDPRNYGDGVIAVKNLNSNNTKVKNKIFTMDTNSSRLIVGMNNSQVQWFRLPLCEDDNGTIEESGLKYQIRDVALLPKEQEGYACSSIDGRVAVEFFDDQGDDYNSSKRFAFRCHRLNLKDTNLAYPVNSIEFSPRHKFLYTAGSDGIISCWNLQTRKKIKNFAKFNEDSVVKIACSDNILCLATSDDTFKTNAAIDQTIELNASSIYIIFDYEN | 55 Miller units |
